For data set [1] the following is noted: oral administration; cited from earlier work.
The subject of the next data set is chymotrypsin. The data set is described as follows: SDPR surface display protease resistance, anti-6xHis staining, chymotrypsin. It is filed as cell-based. Particulars: HEK-293 cells, up to 40 μg/ml chymotrypsin for 20 minutes. The method, then:
(§1) Soluble peptides were exposed to 500 U/mL porcine trypsin and analyzed by HPLC. Protease resistance was also assessed by using SDPR-displaying peptides. The SDPR vector is similar to the a surface display GFP FasL(SDGF) vector, but contains a C-terminal 6×His tag (SEQ ID NO: 180) and all basic or aromatic amino acid residues on the stalk removed. Protease resistance is then tested by incubation of cells displaying peptides with trypsin or chymotrypsin, followed by incubation in 10 mM DTT, and staining with an anti-6×His fluorophore-labeled antibody (“6×His” disclosed as SEQ ID NO: 180). If peptides are uncleaved, they retain the His tag and are stained with by the antibody. A control protease-sensitive knottin peptide (SK) was used as a positive control. Cells displaying peptides were treated with up to 40 μg/ml trypsin or chymotrypsin.
(§2) To determine the impact of protease treatment or reducing condition on the function of the peptides, i.e., binding activity, various binding or functional assays can be performed. […] After treatment with the protease and reducing agent, any linearized peptide product or degradation product resulting from reduction and/or proteolysis by treatment with a protease can be detected or analyzed by staining against the 6×His tag (SEQ ID NO: 180). […]

Data set [2] in a line: Resistance to reduction by reduced glutathione (GSH), HPLC. The conditions noted are these: 10 mM reduced glutathione (GSH); HPLC vs non-reduced peptide. It is filed as physicochemical. The method, then: This example describes stability of designed or engineered peptides under reducing conditions. Peptides that are designed or engineered to interact with one or more target proteins in the cell, such as proteins in the nucleus, are exposed to reducing conditions in the cytosolic compartment of cells. Thus, it is advantageous for peptides of this disclosure to display stability in reducing conditions. Stability of peptides of this disclosure was tested in 10 mM DTT and 10 mM GSH. GSH is a more physiologically relevant reducing agent for testing peptide stability in intracellular conditions. An example of a peptide-target protein interaction is a peptide binding to a TEAD protein.

Another data set deals with trypsin (Sus scrofa, UniProt P00761). The data set is described as follows: SDPR surface display protease resistance, anti-6xHis staining, trypsin. It is filed as cell-based. The conditions noted are these: HEK-293 cells, up to 40 μg/ml trypsin for 20 minutes. As to the method:
as §1, §2

Positions of bridges follow the written chain, without caps; N, C: chain ends. Residues, ends and D or L forms follow the SMILES beside them.

Chain of trypsin (P00761 9-231): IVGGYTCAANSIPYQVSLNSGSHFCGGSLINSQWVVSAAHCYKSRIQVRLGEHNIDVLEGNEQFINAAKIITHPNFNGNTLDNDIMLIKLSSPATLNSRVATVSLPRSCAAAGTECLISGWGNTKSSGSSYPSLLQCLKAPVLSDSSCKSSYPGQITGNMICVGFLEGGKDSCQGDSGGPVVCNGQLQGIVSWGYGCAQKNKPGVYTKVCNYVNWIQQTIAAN

Consider `C[C@@H]1NC(=O)[C@@H]2CCCN2C(=O)[C@H](CC(N)=O)NC(=O)[C@@H]2CSSC[C@H](N)C(=O)N[C@H]3CSSC[C@H](NC1=O)C(=O)N[C@@H]([C@@H](C)O)C(=O)NCC(=O)N[C@H](C(=O)N[C@@H](Cc1ccc(O)cc1)C(=O)O)CSSC[C@H](NC(=O)[C@H](Cc1ccc(O)cc1)NC(=O)[C@H](CCC(=O)O)NC3=O)C(=O)N2` [linaclotide] (H-CCEYCCNPACTGCY-OH; disulfide 1-6, 2-10, 5-13), for which the “systemic absorption into the plasma” value in data set [1] is “not significantly systemically absorbed”.
Take “PDEYIERAKECCKKQDIQCCLRIFDESKDPNVMLICLFCW [SEQ ID NO: 126]”: the “resistance of surface-displayed peptide to cleavage by chymotrypsin” value with chymotrypsin is “partially resistant”. The “resistance to GSH reducing conditions” value in data set [2] is given as “resistant”. Further, in the data set with trypsin, the “resistance of surface-displayed peptide to cleavage by trypsin” value is reported as “partially resistant”.

(Values after patent US20190375786A1, “STABLE PEPTIDES AND METHODS OF USE THEREOF” (Fred Hutchinson Cancer Research Center, priority 2016, published 2019).)
